Drawing on paper PMC4186791, this text covers percent of binding lost relative to UbxIb Pro4 for 2 molecules.

The target of the experiment is UbxIVa Pro4 (Drosophila melanogaster). Briefly: two-hybrid; LexA-Ubx variant (pLexA) and B42-partner (pB42) co-transformed into S. cerevisiae EGY48 carrying p8op-LacZ; blue/white colonies on X-gal and liquid β-galactosidase (ONPG) assay after galactose induction at 30°C, reported in Miller units.

B1: Cap-binding protein 1 (natural protein)
chain: MSRRRAHDTEDEGYDHRRNKRRRVSENQEIEDRLESLILRVGERSTSSVESNLEGLVSVLEADLGTFRLKILRILSDCAVRMPEKCTVYTTLVGLLNAKNYKFGGEFVDHMVKTFKESLKMCRWDAARYSLRFLADLVNCHVISATSLLQLLDTMIDVSNEDTVPQVRRDWFVFAVLSTLPWVGRDLYEKKESALESLLLRIEVYLNKRSKKHHNALRVWSSDAPHPQEEYLDCLWAQIRKLRQDNWAEKHIPRPYLVFDSILCEALQHNLPTIVPPPHHDNFEYPMPWVVYRMFDYTDCPDGPNLPGAHSIERFLIEEHLHHIIETYHHERKDCAAQLLSFPYKHKIPLEYCIVEVVFAELFHMPTPRYLDICYGSILIELCKLQPATLPQVLAQATEILFMRIDSMNTSCFDRFVNWFSYHLSNFKFTWSWDEWDSCLLLDGEHPRPKFIQEVLQKCLRLSYHQRITEMMPTTYAKLIPLTPVPNYKYANEEAANLPGTTVAHQLVVAIRQKCTPEEVVNILKDIPNSGYSGEEMSDGSFNALKIDVFVQTLLNLGSKSFSHSFAAISKFHSVFRALAETEEAQICILHNIFELWSSHQQMMVVLIDKLLKLQIVDCSAVATWIFSKEMTGEFTKLYLWEILHLTIKKMNKHVIKLNTELSEAKEKLAKADSSSSDSEDDSSHKRKKPITHADKPSEEVVERMEEKLEAANVNQKRLFLIVFQRFIMILSEHLLRSDTDGRDPDTDWYRWTIGRLQQVFLMHHEQVQKYSSTLETLLFTSDLDTHILEVFQQFVALRA
For B1, the percent of binding lost relative to UbxIb Pro4 came out at 85%.

B2: Armadillo (natural protein)
chain: MSYMPAQNRTMSHNNQYNPPDLPPMVSAKEQTLMWQQNSYLGDSGIHSGAVTQVPSLSGKEDEEMEGDPLMFDLDTGFPQNFTQDQVDDMNQQLSQTRSQRVRAAMFPETLEEGIEIPSTQFDPQQPTAVQRLSEPSQMLKHAVVNLINYQDDAELATRAIPELIKLLNDEDQVVVSQAAMMVHQLSKKEASRHAIMNSPQMVAALVRAISNSNDLESTKAAVGTLHNLSHHRQGLLAIFKSGGIPALVKLLSSPVESVLFYAITTLHNLLLHQDGSKMAVRLAGGLQKMVTLLQRNNVKFLAIVTDCLQILAYGNQESKLIILASGGPNELVRIMRSYDYEKLLWTTSRVLKVLSVCSSNKPAIVDAGGMQALAMHLGNMSPRLVQNCLWTLRNLSDAATKVEGLEALLQSLVQVLGSTDVNVVTCAAGILSNLTCNNQRNKATVCQVGGVDALVRTIINAGDREEITEPAVCALRHLTSRHVDSELAQNAVRLNYGLSVIVKLLHPPSRWPLIKAVIGLIRNLALCPANHAPLREHGAIHHLVRLLMRAFQDTERQRSSIATTGSQQPSAYADGVRMEEIVEGTVGALHILARESHNRALIRQQSVIPIFVRLLFNEIENIQRVAAGVLCELAADKEGAEIIEQEGATGPLTDLLHSRNEGVATYAAAVLFRMSEDKPQDYKKRLSIELTNSLLREDNNIWANADLGMGPDLQDMLGPEEAYEGLYGQGPPSVHSSHGGRAFHQQGYDTLPIDSMQGLEISSPVGGGGAGGAPGNGGAVGGASGGGGNIGAIPPSGAPTSPYSMDMDVGEIDAGALNFDLDAMPTPPNDNNNLAAWYDTDC
As for B2, the percent of binding lost relative to UbxIb Pro4 was determined as 60%.
